Assay results as given in publication doi:10.1101/2021.04.29.441998 (bioRxiv, 2021).

Tests used:
cryo-EM structure = biological target: the molecule itself; assay: cryo-EM structure
[1] = biological target: T1, Melbournevirus histone doublet MV-H2B-H2A (MEL_369) (Melbournevirus, UniProt A0A097I2B5 1-269); assay: cryo-EM structure
T1 sequence (looked up): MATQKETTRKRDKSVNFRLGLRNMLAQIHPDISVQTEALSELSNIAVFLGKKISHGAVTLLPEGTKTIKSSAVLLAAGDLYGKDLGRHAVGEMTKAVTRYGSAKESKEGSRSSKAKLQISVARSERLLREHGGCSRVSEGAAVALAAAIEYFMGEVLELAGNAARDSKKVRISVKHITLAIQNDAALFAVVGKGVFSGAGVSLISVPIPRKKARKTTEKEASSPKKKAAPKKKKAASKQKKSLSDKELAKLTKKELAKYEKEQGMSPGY

B1: Melbournevirus histone doublet MV-H4-H3 (MEL_368) (natural protein, UniProt A0A097I2D0 1-216, looked up)
chain: MSKAGKKVKAQQHGHLADHVSVGETQIPKASTQHLLRKAGSLSAAGDTEVPIRGFVHMKLHKLVQKSLLAMQLAKRKTIMKSDVKKAAELMHLPVFAIPTKDSGAKGSVFLSCRQKGAGSAGTGSETNSQEVRSQMKSTCLIIPKERFRTMAKEISKKEGHDVHIAEAALDMLQVIVESCTVRLLEKALVITYSGKRTRVTSKDIETAFMLEHGPL
cryo-EM structure
  binding result: binds
[1]
  binding result: binds
